Key:
[1] = molecular target: Soluble FcγRIIaR extracellular domain with C-terminal 10×His tag (UniProt P12318); experiment: SPR; KD ratio against wild-type v16463
[2] = molecular target: Soluble FcγRIIb extracellular domain with C-terminal 10×His tag (UniProt P31994); experiment: SPR; KD ratio against wild-type v16463
[3] = molecular target: Soluble FcγRIIaR extracellular domain with C-terminal 10×His tag (UniProt P12318); experiment: SPR, antibody captured on HER2 chip, receptor as analyte
[4] = molecular target: Soluble FcγRIIb extracellular domain with C-terminal 10×His tag (UniProt P31994); experiment: as above
[5] = molecular target: Soluble FcγRIIb extracellular domain with C-terminal 10×His tag (UniProt P31994); experiment: SPR; ratio of IIb-Fold to IIaR-Fold (FcγRIIb against FcγRIIaR)
[6] = molecular target: Biotinylated FcγRIIb extracellular domain-Fc fusion (human IgG1 Fc with L234A_L235A_D265S) (human) (UniProt P31994); experiment: competition electrochemiluminescence assay; antibody on HER2, biotinylated FcγRIIb-Fc, competitor FcγRIIaR-Fc
FcγRIIb [7] = molecular target: FcγRIIb (UniProt P31994); experiment: derived from the SPRi KDs for FcγRIIb and FcγRIIaR, relative to WT
FcγRIIaR [8] = molecular target: FcγRIIaR (UniProt P12318); experiment: SPR imaging (IBIS MX96), antibody spotted on chip, soluble receptor as analyte, kinetic fit, 25 C, pH 7.4
FcγRIIb [9] = molecular target: FcγRIIb (UniProt P31994); experiment: as above
[10] = molecular target: FcγRIIaR, soluble extracellular domain (UniProt P12318); experiment: SPR; fold change in affinity over wild-type v16463
[11] = molecular target: FcγRIIb, soluble extracellular domain (UniProt P31994); experiment: SPR; fold change in affinity over wild-type v16463
[12] = molecular target: FcγRIIb, soluble extracellular domain (UniProt P31994); experiment: SPR; IIb-Fold/IIaR-Fold (FcγRIIb against FcγRIIaR), vs. wild-type v16463
[13] = molecular target: FcγRIIaR, soluble extracellular domain (UniProt P12318); experiment: SPR (General Methods Protocol 2): one-armed antibody captured on immobilised HER2, soluble receptor as analyte
[14] = molecular target: FcγRIIb, soluble extracellular domain (UniProt P31994); experiment: as above
FcγRIIb [15] = molecular target: FcγRIIb (UniProt P31994); experiment: SPR (Protocol 2), against wild-type 16463
FcγRIIb [16] = molecular target: FcγRIIb (UniProt P31994); experiment: SPR (Protocol 2); selectivity for FcγRIIb against FcγRIIaR
FcγRIIaR [17] = molecular target: FcγRIIaR (UniProt P12318); experiment: SPR (Protocol 2, Biacore 4000), antibody captured on immobilised HER2, FcγR as analyte
FcγRIIb [18] = molecular target: FcγRIIb (UniProt P31994); experiment: as above
[19] = molecular target: Soluble FcγRIIaR extracellular domain with C-terminal 10×His tag (UniProt P12318); experiment: SPR; KD of WT v16463 / KD of variant
[20] = molecular target: Soluble FcγRIIb extracellular domain with C-terminal 10×His tag (UniProt P31994); experiment: SPR; KD of WT v16463 / KD of variant
[21] = molecular target: Soluble FcγRIIb extracellular domain with C-terminal 10×His tag (UniProt P31994); experiment: SPR; IIb-Fold / IIaR-Fold (FcγRIIb against FcγRIIaR)
[22] = molecular target: Soluble FcγRIIaR extracellular domain with C-terminal 10×His tag (UniProt P12318); experiment: SPR (Biacore 4000), antibody captured on immobilised HER2, receptor as analyte
[23] = molecular target: Soluble FcγRIIb extracellular domain with C-terminal 10×His tag (UniProt P31994); experiment: as above
FcγRIIb [24] = molecular target: FcγRIIb (UniProt P31994); experiment: SPR; IIb-Fold divided by IIaR-Fold (FcγRIIb against FcγRIIaR)
FcγRIIaR [25] = molecular target: FcγRIIaR (UniProt P12318); experiment: SPR, antibody captured on immobilised HER2, receptor as analyte; fold affinity over WT v16463
FcγRIIb [26] = molecular target: FcγRIIb (UniProt P31994); experiment: as above
[27] = molecular target: Soluble FcγRIIb extracellular domain with C-terminal 10xHis tag (UniProt P31994); experiment: SPR; IIb-Fold / IIaR-Fold
[28] = molecular target: Soluble FcγRIIaR extracellular domain with C-terminal 10xHis tag (UniProt P12318); experiment: SPR; fold relative to control v27293
[29] = molecular target: Soluble FcγRIIb extracellular domain with C-terminal 10xHis tag (UniProt P31994); experiment: SPR; fold relative to control v27293
[30] = molecular target: Soluble FcγRIIaR extracellular domain with C-terminal 10xHis tag (UniProt P12318); experiment: SPR; fold change in affinity over WT v16463
[31] = molecular target: Soluble FcγRIIb extracellular domain with C-terminal 10xHis tag (UniProt P31994); experiment: SPR; fold change in affinity over WT v16463
[32] = molecular target: Soluble FcγRIIb extracellular domain with C-terminal 10xHis tag (UniProt P31994); experiment: SPR; selectivity relative to control v27293
[33] = molecular target: Soluble FcγRIIaR extracellular domain with C-terminal 10xHis tag (UniProt P12318); experiment: SPR, antibody captured on immobilised HER2, soluble receptor as analyte
[34] = molecular target: Soluble FcγRIIb extracellular domain with C-terminal 10xHis tag (UniProt P31994); experiment: as above
[35] = molecular target: Biotinylated FcγRIIb extracellular domain-Fc fusion (human IgG1 Fc with L234A_L235A_D265S) (human) (UniProt P31994); experiment: competition electrochemiluminescence, antibody on HER2-coated plate, biotinylated FcγRIIb-Fc; competitor FcγRIIaR-Fc at 10x
FcγRIIb [36] = molecular target: FcγRIIb (UniProt P31994); experiment: SPR; IIb-Fold divided by IIaR-Fold, selectivity for FcγRIIb over FcγRIIaR relative to wild-type
FcγRIIIaF = FcγRIIIaF (UniProt P08637); experiment: SPR, antibody captured on HER2 chip, receptor as analyte; fold change in affinity over wild-type
FcγRIIaH = FcγRIIaH (UniProt P12318); experiment: as above
FcγRIIaR [37] = molecular target: FcγRIIaR (UniProt P12318); experiment: as above
FcγRIIb [38] = molecular target: FcγRIIb (UniProt P31994); experiment: as above
FcγRIa = FcγRIa (UniProt P12314); experiment: as above
[39] = molecular target: Soluble FcγRIIb extracellular domain with C-terminal 10xHis tag (UniProt P31994); experiment: SPR; IIb-Fold/IIaR-Fold (FcγRIIb against FcγRIIaR)
[40] = molecular target: Soluble FcγRIIaR extracellular domain with C-terminal 10xHis tag (UniProt P12318); experiment: SPR; fold change in affinity over wild-type v16463
[41] = molecular target: Soluble FcγRIIb extracellular domain with C-terminal 10xHis tag (UniProt P31994); experiment: SPR; fold change in affinity over wild-type v16463
[42] = molecular target: Soluble FcγRIIaR extracellular domain with C-terminal 10xHis tag (UniProt P12318); experiment: SPR (Biacore 4000), antibody captured on immobilised HER2, receptor as analyte
[43] = molecular target: Soluble FcγRIIb extracellular domain with C-terminal 10xHis tag (UniProt P31994); experiment: as above
[44] = molecular target: Biotinylated FcγRIIb extracellular domain-Fc fusion (human IgG1 Fc with L234A_L235A_D265S) (human) (UniProt P31994); experiment: competition electrochemiluminescence (MSD), antibody on coated HER2, biotinylated FcγRIIb-Fc with FcγRIIaR-Fc as competitor

v12, IIb-specific comparator with symmetrical E233D_G237D_P238D_H268D_P271G_A330R (Mimoto et al. 2013), trastuzumab antibody
IIaR-fold [1]: 1.4 fold
IIb-Fold [2]: 112 fold
Kd [3]: 220 nM
Kd [4]: 13 nM
IIb Selectivity (IIb-Fold/IIaR-Fold) [5]: 80.5 fold
ELISA (% of non-competed FcγRIIb signal in presence of 10x FcγRIIa) [6]: 100%

v12 (IIb-specific comparator, symmetrical E233D_G237D_P238D_H268D_P271G_A330R), anti-CD19 (4G7) full-size antibody
IIb Selectivity (IIb-Fold/IIaR-Fold) (FcγRIIb [7]): 106 fold
Kd (FcγRIIaR [8]): 460 nM
Kd (FcγRIIb [9]): 13 nM

Variant 16463, wild-type one-armed trastuzumab antibody (OAA) with heterodimeric IgG1 Fc
IIaR-Fold vs. WT [10]: 1 fold
IIb-Fold vs. WT [11]: 1 fold
IIb/IIaR Selectivity vs. WT [12]: 1 fold
Kd [13]: 310 nM
Kd [14]: 1400 nM

Variant 18372, control without loop replacement (chain B S239D_H268D), one-armed antibody Scaffold 2
IIb-Fold (fold change in affinity over wild-type) (fold over wild-type) (FcγRIIb [15]): 29.3
IIb/IIaR Selectivity (FcγRIIb [16]): 1.4
Kd (FcγRIIaR [17]): 17 nM
Kd (FcγRIIb [18]): 39 nM

Variant 16463, wild-type one-armed trastuzumab antibody with heterodimeric IgG1 Fc
IIaR-fold [19]: 1 fold
IIb-Fold [20]: 1 fold
IIb Selectivity [21]: 1 fold
Kd [22]: 310 nM
Kd [23]: 1400 nM

Variant 27362, Strat 3 control (A_G236N_G237A / B_G236D_G237F_S239D_S267V_H268D) (antibody)
IIb Selectivity (FcγRIIb [24]): 9 fold
IIaR-fold (FcγRIIaR [25]): 1 fold
IIb-Fold (FcγRIIb [26]): 9 fold

Variant 27293, Launching Module 1 (A_G236N_G237A / B_G236D_G237F_S239D_S267V_H268D_Template_1), one-armed trastuzumab antibody
IIb Selectivity [27]: 11.8
IIaR-Fold wrt Control [28]: 1 fold
IIb-Fold wrt Control [29]: 1 fold
IIaR-fold [30]: 35.2 fold
IIb-Fold [31]: 415 fold
IIb Selectivity Fold wrt Control [32]: 1 fold
Kd [33]: 8.8 nM
Kd [34]: 3.5 nM
ELISA (% of non-competed FcγRIIb signal in presence of 10x FcγRIIa) [35]: 70.8%

v12 (OAA), IIb-specific comparator, trastuzumab one-armed antibody with symmetrical E233D_G237D_P238D_H268D_P271G_A330R
IIb/IIaR Selectivity (ratio (IIb-Fold/IIaR-Fold)) (FcγRIIb [36]): 82.9
FcγR Binding (Fold Change over WT) (FcγRIIIaF): 0.1 fold over WT
FcγR Binding (Fold Change over WT) (FcγRIIaH): 0.1 fold over WT
FcγR Binding (Fold Change over WT) (FcγRIIaR [37]): 1.4 fold over WT
FcγR Binding (Fold Change over WT) (FcγRIIb [38]): 112 fold over WT
FcγR Binding (Fold Change over WT) (FcγRIa): 0 fold over WT

v12, symmetrical E233D_G237D_P238D_H268D_P271G_A330R (IIb-specific comparator) (antibody)
IIb Selectivity [39]: 80.5 fold
IIaR-fold [40]: 1.4 fold
IIb-Fold [41]: 112 fold
Kd [42]: 220 nM
Kd [43]: 13 nM
ELISA (% of non-competed FcγRIIb signal in presence of 10x FcγRIIa) [44]: 100%

Source: US20240294646A1
